This note sets out measurements from patent publication US20200199241A1 (Chugai, published 2020).

Residue numbers refer to the chain shown, from its start. Names and notes keep the numbering of the source.

As usually defined, the Kd is the equilibrium constant for the complex coming apart.

To fix the notation:
B1: IgG1-F484 (antibody)
heavy: QVQLQESGPGLVKPSETLSLTCAVSGHSISHDHAWSWVRQPPGEGLEWIGFISYSGITNYNPSLQGRVTISRDNSKNTLYLQMNSLRAEDTAVYYCARSLARTTAMDYWGEGTLVTVSSASTKGPSVFPLAPSSKSTSGGTAALGCLVKDYFPEPVTVSWNSGALTSGVHTFPAVLQSSGLYSLSSVVTVPSSSLGTQTYICNVNHKPSNTKVDKKVEPKSCDKTHTCPPCPAPELLGGPSVFLFPPKPKDTLMISRTVEVTCVVVDVSHEDPEVKFNWYVDGVEVHNAKTKPREEQYNSTYRVVSALQVLHQDWLNGKEYKCKVSNKALPAPIEKTISKAKGQPREPQVYTLPPSRDELTKNQVSLTCLVKGFYPSDIAVEWESNGQPENNYKTTPPVLDSDGSFFLYSKLTVDKSRWQQGNVFSCSVMHEALHYHYTQKSLSLSP
light: not shown
notes: EU numbering; copies: 2 + 2
B2: IgG1-F584 (antibody)
heavy: B1 heavy with S241K, M254Y, T258E, V259P, A307V, Q309T, V310P, Y436N
light: not shown
notes: EU numbering; copies: 2 + 2
B3: IgG1-F563 (antibody)
heavy: B1 heavy with M254Y, S256T, V259P, A307V, Q309T, Q313A
light: not shown
notes: EU numbering; copies: 2 + 2
B4: IgG1-F559 (antibody)
heavy: B1 heavy with M254Y, S256T, V259P, N288E, A307V, Q309T
light: not shown
notes: EU numbering; copies: 2 + 2
B5: IgG1-F508 (antibody)
heavy: B1 heavy with A307V, N317A, M430L
light: not shown
notes: EU numbering; copies: 2 + 2
B6: IgG1-F561 (antibody)
heavy: B1 heavy with M254Y, S256T, V259P, A307V, Q309A
light: not shown
notes: EU numbering; copies: 2 + 2
B7: IgG1-F500 (antibody)
heavy: B1 heavy with V259S, A307V, M430L
light: not shown
notes: EU numbering; copies: 2 + 2
B8: IgG1-F578 (antibody)
heavy: B1 heavy with M254Y, V259P, N288E, A307V, Q313A, Y436N
light: not shown
notes: EU numbering; copies: 2 + 2
B9: IgG1-F576 (antibody)
heavy: B1 heavy with M254Y, T258E, V259P, A307V, Q313H, Y436N
light: not shown
notes: EU numbering; copies: 2 + 2
B10: IgG1-F485 (antibody)
heavy: B1 heavy with N288E, A307V, Q309A
light: not shown
notes: EU numbering; copies: 2 + 2
B11: IgG1-F550 (antibody)
heavy: B1 heavy with T252V, A307V, M430L
light: not shown
notes: EU numbering; copies: 2 + 2
B12: IgG1-F535 (antibody)
heavy: B1 heavy with T252A, A307V, M430L
light: not shown
notes: EU numbering; copies: 2 + 2
B13: IgG1-F562 (antibody)
heavy: B1 heavy with M254Y, S256T, V259P, A307V
light: not shown
notes: EU numbering; copies: 2 + 2
B14: IgG1-F565 (antibody)
heavy: B1 heavy with M254Y, S256T, V259P, A307V, Q309A, Q313A
light: not shown
notes: EU numbering; copies: 2 + 2
B15: IgG1-F580 (antibody)
heavy: B1 heavy with M254Y, V259P, N288E, A307V, Q313H, Y436N
light: not shown
notes: EU numbering; copies: 2 + 2
B16: IgG1-F518 (antibody)
heavy: B1 heavy with V259T, N288E, A307V, Q309T
light: not shown
notes: EU numbering; copies: 2 + 2
B17: IgG1-F552 (antibody)
heavy: B1 heavy with T252Y, A307V, M430L
light: not shown
notes: EU numbering; 'N428L' as printed, probably M428L; copies: 2 + 2
B18: IgG1-F538 (antibody)
heavy: B1 heavy with T252F, A307V, M430L
light: not shown
notes: EU numbering; copies: 2 + 2
B19: IgG1-F572 (antibody)
heavy: B1 heavy with M254Y, V259P, A307V, Q309A, Q313H, M430I
light: not shown
notes: EU numbering; copies: 2 + 2
B20: IgG1-F521 (antibody)
heavy: B1 heavy with N288E, A307V, M430Y
light: not shown
notes: EU numbering; copies: 2 + 2
B21: IgG1-F556 (antibody)
heavy: B1 heavy with M254Y, V259P, A307V, Q313A, Y436N
light: not shown
notes: EU numbering; copies: 2 + 2
B22: IgG1-F534 (antibody)
heavy: B1 heavy with V259A, N288E, A307V, M430Y
light: not shown
notes: EU numbering; copies: 2 + 2
B23: IgG1-F560 (antibody)
heavy: B1 heavy with M254Y, S256T, V259P, A307V, Q309T, V310P
light: not shown
notes: EU numbering; copies: 2 + 2
B24: IgG1-F509 (antibody)
heavy: B1 heavy with A307V, N386A, M430L
light: not shown
notes: EU numbering; copies: 2 + 2
B25: IgG1-F567 (antibody)
heavy: B1 heavy with M254Y, S256T, V259P, A307V, Q309T, M430I
light: not shown
notes: EU numbering; copies: 2 + 2
B26: IgG1-F519 (antibody)
heavy: B1 heavy with N288E, A307V
light: not shown
notes: EU numbering; copies: 2 + 2
B27: IgG1-F582 (antibody)
heavy: B1 heavy with S241K, M254Y, V259P, A307V, Q309T, V310P, Y436N
light: not shown
notes: EU numbering; copies: 2 + 2
B28: IgG1-F498 (antibody)
heavy: B1 heavy with V259A, A307V, Q309T, M430V
light: not shown
notes: EU numbering; 'N428V' as printed, probably M428V; copies: 2 + 2
B29: IgG1-F507 (antibody)
heavy: B1 heavy with N288A, A307V, M430L
light: not shown
notes: EU numbering; copies: 2 + 2
B30: IgG1-F570 (antibody)
heavy: B1 heavy with M254Y, S256T, V259P, A307V, Q309A, Q313H
light: not shown
notes: EU numbering; copies: 2 + 2
B31: IgG1-F488 (antibody)
heavy: B1 heavy with A307V, Q309T, V310P, N327G, M430L
light: not shown
notes: EU numbering; copies: 2 + 2
B32: IgG1-F553 (antibody)
heavy: B1 heavy with M254Y, V259P, A307V, Q309T, Q313A
light: not shown
notes: EU numbering; copies: 2 + 2
B33: IgG1-F523 (antibody)
heavy: B1 heavy with M430Y
light: not shown
notes: EU numbering; copies: 2 + 2
B34: IgG1-F490 (antibody)
heavy: B1 heavy with S241K, A307V, Q309T, V310P, Q313H, M430L
light: not shown
notes: EU numbering; copies: 2 + 2
B35: IgG1-F486 (antibody)
heavy: B1 heavy with A307V, L311R, Q313H, M430L
light: not shown
notes: EU numbering; copies: 2 + 2
B36: IgG1-F577 (antibody)
heavy: B1 heavy with M254Y, V259P, N288E, A307V, Q309A, Q313A, Y436N
light: not shown
notes: EU numbering; copies: 2 + 2
B37: IgG1-F541 (antibody)
heavy: B1 heavy with T252I, A307V, M430L
light: not shown
notes: EU numbering; copies: 2 + 2
B38: IgG1-F566 (antibody)
heavy: B1 heavy with M254Y, S256T, V259P, A307V, Q313A
light: not shown
notes: EU numbering; copies: 2 + 2
B39: IgG1-F571 (antibody)
heavy: B1 heavy with M254Y, V259P, N288E, A307V, Q309A, Q313H
light: not shown
notes: EU numbering; copies: 2 + 2
B40: IgG1-F499 (antibody)
heavy: B1 heavy with V259A, A307V, Q309A, M430V
light: not shown
notes: EU numbering; copies: 2 + 2
B41: IgG1-F569 (antibody)
heavy: B1 heavy with M254Y, T258Q, V259P, A307V, Q309A, Q313H
light: not shown
notes: EU numbering; copies: 2 + 2
B42: IgG1-F493 (antibody)
heavy: B1 heavy with S241K, V259P, D272F, A307V, Q309P, N327G, M430Y
light: not shown
notes: EU numbering; copies: 2 + 2
B43: IgG1-F533 (antibody)
heavy: B1 heavy with V259A, N288E, A307V, M430F
light: not shown
notes: EU numbering; copies: 2 + 2
B44: IgG1-F568 (antibody)
heavy: B1 heavy with M254Y, T258E, V259P, A307V, Q309A, Q313H
light: not shown
notes: EU numbering; copies: 2 + 2
B45: IgG1-F544 (antibody)
heavy: B1 heavy with T252M, A307V, M430L
light: not shown
notes: EU numbering; copies: 2 + 2
B46: IgG1-F549 (antibody)
heavy: B1 heavy with T252S, A307V, M430L
light: not shown
notes: EU numbering; copies: 2 + 2
B47: IgG1-F564 (antibody)
heavy: B1 heavy with M254Y, S256T, V259P, A307V, Q309T, Q313H
light: not shown
notes: EU numbering; copies: 2 + 2
B48: IgG1-F517 (antibody)
heavy: B1 heavy with N288E, A307V, Q309T
light: not shown
notes: EU numbering; copies: 2 + 2
B49: IgG1-F583 (antibody)
heavy: B1 heavy with S241K, M254Y, V259P, A307V, Q309T, V310P, E384A, Y436N
light: not shown
notes: EU numbering; copies: 2 + 2
B50: IgG1-F551 (antibody)
heavy: B1 heavy with T252W, A307V, M430L
light: not shown
notes: EU numbering; copies: 2 + 2
B51: IgG1-F581 (antibody)
heavy: B1 heavy with M254Y, T258E, V259P, N288E, A307V, Q309T
light: not shown
notes: EU numbering; copies: 2 + 2
B52: IgG1-F526 (antibody)
heavy: B1 heavy with V259T, A307V, M430Y
light: not shown
notes: EU numbering; copies: 2 + 2
B53: IgG1-F510 (antibody)
heavy: B1 heavy with A307V, N391A, M430L
light: not shown
notes: EU numbering; copies: 2 + 2
B54: IgG1-F506 (antibody)
heavy: B1 heavy with N299A, A307V, M430L
light: not shown
notes: EU numbering; copies: 2 + 2
B55: IgG1-F497 (antibody)
heavy: B1 heavy with V259T, A307V, Q309A, M430V
light: not shown
notes: as for B28

In the experiment the target is T1, human FcRn (soluble human FcRn complexed with β2-microglobulin) (human, UniProt P61769 21-119, limits assumed).
T1 construct: also called hFcRn
T1 sequence (chain, as listed by the source limits assumed, chain 1 of 2): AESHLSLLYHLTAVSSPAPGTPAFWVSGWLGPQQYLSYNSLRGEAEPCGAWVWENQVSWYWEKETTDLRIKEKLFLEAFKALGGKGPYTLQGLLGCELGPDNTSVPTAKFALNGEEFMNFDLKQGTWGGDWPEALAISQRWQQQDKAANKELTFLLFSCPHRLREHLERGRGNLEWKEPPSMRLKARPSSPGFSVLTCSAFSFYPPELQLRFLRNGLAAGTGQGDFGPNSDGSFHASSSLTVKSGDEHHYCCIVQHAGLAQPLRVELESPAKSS
T1 sequence (P61769 21-119 limits assumed, chain 2 of 2): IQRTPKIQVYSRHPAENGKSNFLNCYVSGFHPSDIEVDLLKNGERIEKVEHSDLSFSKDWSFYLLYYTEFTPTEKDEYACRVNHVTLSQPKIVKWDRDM
Put plainly: SPR, pH 7.0.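 Further: antibodies captured on a Protein L sensor chip with human FcRn injected as analyte, KD calculated from fitted association and dissociation rate constants.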
B1 showed a Kd of 62 nM.

As to B2, the Kd stood at 630 nM. Against the preceding molecule, the Kd is about 10-fold higher. The figure for B3 is 130 nM; for B4 it is 80 nM. The figure for B5 is 110 nM.

Take B6: the Kd came out at 140 nM. This Kd and that of the molecule before are within 1.5-fold of each other. As for B7, the figure is 43 nM.

B8 had a Kd of 570 nM. The figure for B9 is 1600 nM; for B10 it is 97 nM; for B11 it is 59 nM.

In turn, B12 gave a Kd of 39 nM. Compared with the last molecule, the Kd is about 1.5-fold lower. As for B13, the figure is 83 nM. Consider B14, for which binding was characterised by a dissociation constant (Kd) of 92 nM. The figure for B15 is 860 nM. The figure for B16 is 420 nM.

B17 displayed an equilibrium dissociation constant (Kd) of 110 nM.

B18: the Kd turned out to be 99 nM. The figure for B19 is 100 nM; for B20 it is 11 nM; for B21 it is 1500 nM. As for B22, the figure is 12 nM; as for B23, 28 nM. The figure for B24 is 58 nM; for B25 it is 220 nM. B26 registered an equilibrium dissociation constant (Kd) of 26 nM. For B27, the Kd amounted to 750 nM. The figure for B28 is 1300 nM; for B29 it is 51 nM. As for B30, the figure is 130 nM; as for B31, 35 nM. The figure for B32 is 170 nM; for B33 it is 26 nM. B34: the Kd was 75 nM. This Kd is about 2.9-fold higher than that of the molecule before. For B35, binding was put at a Kd of 340 nM.

B36 returned a dissociation constant Kd of 1300 nM. Against the preceding molecule, the Kd is about 3.8-fold higher. As for B37, the figure is 60 nM. As for B38, the figure is 61 nM. Molecule B39 came in with a Kd of 81 nM. The figure for B40 is 520 nM.

In turn, B41 returned a Kd of 200 nM. The figure for B42 is 490 nM; for B43 it is 12 nM.

Turning to B44, the Kd turned out to be 110 nM. The molecule B45 registered a Kd of 31 nM. Against the preceding molecule, the Kd is about 3.5-fold lower. The figure for B46 is 54 nM; for B47 it is 190 nM; for B48 it is 310 nM.

B49: the affinity, expressed as Kd, was 780 nM. As for B50, the figure is 120 nM; as for B51, 72 nM. In turn, B52 gave a Kd of 19 nM. The figure for B53 is 53 nM; for B54 it is 190 nM. As for B55, the figure is 3100 nM.
